Data: IntAct's records for PubMed 23824069

B1: Phosphatidylinositol 4,5-bisphosphate 3-kinase catalytic subunit gamma isoform (Homo sapiens), P48736 (parent)
chain: MELENYKQPVVLREDNCRRRRRMKPRSAAASLSSMELIPIEFVLPTSQRKCKSPETALLHVAGHGNVEQMKAQVWLRALETSVAADFYHRLGPHHFLLLYQKKGQWYEIYDKYQVVQTLDCLRYWKATHRSPGQIHLVQRHPPSEESQAFQRQLTALIGYDVTDVSNVHDDELEFTRRGLVTPRMAEVASRDPKLYAMHPWVTSKPLPEYLWKKIANNCIFIVIHRSTTSQTIKVSPDDTPGAILQSFFTKMAKKKSLMDIPESQSEQDFVLRVCGRDEYLVGETPIKNFQWVRHCLKNGEEIHVVLDTPPDPALDEVRKEEWPLVDDCTGVTGYHEQLTIHGKDHESVFTVSLWDCDRKFRVKIRGIDIPVLPRNTDLTVFVEANIQHGQQVLCQRRTSPKPFTEEVLWNVWLEFSIKIKDLPKGALLNLQIYCGKAPALSSKASAESPSSESKGKVQLLYYVNLLLIDHRFLLRRGEYVLHMWQISGKGEDQGSFNADKLTSATNPDKENSMSISILLDNYCHPIALPKHQPTPDPEGDRVRAEMPNQLRKQLEAIIATDPLNPLTAEDKELLWHFRYESLKHPKAYPKLFSSVKWGQQEIVAKTYQLLARREVWDQSALDVGLTMQLLDCNFSDENVRAIAVQKLESLEDDDVLHYLLQLVQAVKFEPYHDSALARFLLKRGLRNKRIGHFLFWFLRSEIAQSRHYQQRFAVILEAYLRGCGTAMLHDFTQQVQVIEMLQKVTLDIKSLSAEKYDVSSQVISQLKQKLENLQNSQLPESFRVPYDPGLKAGALAIEKCKVMASKKKPLWLEFKCADPTALSNETIGIIFKHGDDLRQDMLILQILRIMESIWETESLDLCLLPYGCISTGDKIGMIEIVKDATTIAKIQQSTVGNTGAFKDEVLNHWLKEKSPTEEKFQAAVERFVYSCAGYCVATFVLGIGDRHNDNIMITETGNLFHIDFGHILGNYKSFLGINKERVPFVLTPDFLFVMGTSGKKTSPHFQKFQDICVKAYLALRHHTNLLIILFSMMLMTGMPQLTSKEDIEYIRDALTVGKNEEDAKKYFLDQIEVCRDKGWTVQFNWFLHLVLGIKQGEKHSA
partner: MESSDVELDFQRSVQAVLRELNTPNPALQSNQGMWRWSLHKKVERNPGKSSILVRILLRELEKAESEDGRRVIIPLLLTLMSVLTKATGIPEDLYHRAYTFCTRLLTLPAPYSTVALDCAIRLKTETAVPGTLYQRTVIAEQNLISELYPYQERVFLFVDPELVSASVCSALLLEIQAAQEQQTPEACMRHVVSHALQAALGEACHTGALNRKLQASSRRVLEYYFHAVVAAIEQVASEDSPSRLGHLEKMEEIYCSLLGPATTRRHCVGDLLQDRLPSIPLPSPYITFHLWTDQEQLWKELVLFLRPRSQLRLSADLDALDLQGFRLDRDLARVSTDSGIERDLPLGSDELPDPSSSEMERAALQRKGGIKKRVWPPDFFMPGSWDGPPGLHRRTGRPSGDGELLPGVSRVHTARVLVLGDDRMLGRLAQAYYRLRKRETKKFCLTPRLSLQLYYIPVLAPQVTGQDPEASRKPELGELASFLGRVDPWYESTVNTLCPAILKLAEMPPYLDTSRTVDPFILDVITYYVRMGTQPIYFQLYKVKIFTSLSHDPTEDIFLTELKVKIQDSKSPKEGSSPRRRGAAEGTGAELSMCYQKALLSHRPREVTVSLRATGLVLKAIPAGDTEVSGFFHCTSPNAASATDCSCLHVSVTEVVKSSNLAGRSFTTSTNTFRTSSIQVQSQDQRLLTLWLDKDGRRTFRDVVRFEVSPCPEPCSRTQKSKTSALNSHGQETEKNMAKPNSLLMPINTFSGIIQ

Variants of: B1
Settings: with pi3r6_mouse Pik3r6, Q3U6Q4

Row | Variant | effect of a mutation on the interaction
1 | S582E | decreasing interaction strength
2 | S582D | decreasing interaction strength
